For the test, the target named is human CXCR5 (human) (UniProt P32302). The test can be described thus: cell-based or functional assay.
Sequence of human CXCR5 (human) (P32302 whole entry): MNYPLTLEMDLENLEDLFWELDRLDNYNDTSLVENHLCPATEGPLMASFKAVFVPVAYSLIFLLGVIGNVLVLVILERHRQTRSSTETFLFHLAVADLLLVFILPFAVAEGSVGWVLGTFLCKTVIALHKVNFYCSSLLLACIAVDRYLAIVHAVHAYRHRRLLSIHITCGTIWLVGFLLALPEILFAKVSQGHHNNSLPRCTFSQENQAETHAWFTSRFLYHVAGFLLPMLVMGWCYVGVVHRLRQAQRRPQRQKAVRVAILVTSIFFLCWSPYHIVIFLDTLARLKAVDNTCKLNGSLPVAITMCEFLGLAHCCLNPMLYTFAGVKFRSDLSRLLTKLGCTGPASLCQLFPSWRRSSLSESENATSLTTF

B1: SAR113244 (antibody, from another filing, V domains shown)
VH: QVQLKESGPGLVAPSESLSITCTVSGFSLIDYGVNWIRQPPGKGLEWLGVIWGDGTTYYNPSLKSRLSISKDNSKSQVFLKVTSLTTDDTAMYYCARIVYWGQGTLVTVSA
VL: DIVMTQAAPSVAVTPGASVSISCRSSKSLLHSSGKTYLYWFLQRPGQSPQLLIYRLSSLASGVPDRFSGSGSGTAFTLRISRVEAEDVGVYYCMQHLEYPYTFGGGTKLEIKR
In the case of B1, the IC50 [nM] of mAbs in chemotaxis assay using HS-Sultan cells (25 nM CXCL13) worked out at 4.7 nM.
